The data set in a line: soluble on expression in E. coli; label from the status in PepcDB or PDB records.
As for “MGSDKIHHHHHHMKFVEIRDLQVTYMGKDKPSIVVDKLDIEEGESVLITGRSGSGKSTLVSVINGVIPHLINAEIKGEVRVFGFDVKSTPIHEISKYVGTLLQDPDTQAFNYTIIDEVAFGVENYMISRDEMIERVEESMKIYGISHLRDREINTLSGGELQRTILASVLAMRPKALILDEPTSNIDPQGTREILELVKTFRSEGISLVLVEHKIERVLPFVDRIIVVEEGKIAVDVRKDEIVDKADFLYSLGLEIPDYMLFLKKNGFRKIDYEYLRKTYTYRPPSRIGGKGEALYASVKVKTKNGIYLINTKISLKQGTITALMGKNGSGKTTLLKVIVGLIDKKRLIVEEEKVIVNGVDLSKTKLVERGKFIAYLPQFFDVMFIKRTVEDEIKFSMKNRGTYDEKRLGEVLKMFSLDAYRKEDPLVLSMGQRRRVAMASVLAGGAKVILMDEPTSGQDWYHRQILGKELLELRDKGYTILVVTHDSRFVDRFADYLLVMNEGKIVLEGKPEEVFIKSLRHGIEPPLEYELGGLIKNEHFS”, the “soluble on expression in E. coli” value is “not soluble”.

In the case of “MSLTASIPINSNLIVHVGNNVRIDAFGLKARLTGDLNVVQDKQGLGLNGQINIPEGRFHAYGQDLIVRKGELLFSGPPDQPYLNIEAIRNPDATEDDVIAGVRVTGLADEPKAEIFSDPAMSQQAALSYLLRGQGLESDQSDSAAMTSMLIGLGVAQSGQIVGKIGETFGVSNLALDTQGVGDSSQVVVSGYVLPGLQVKYGVGIFDSIATLTLRYRLMPKLYLEAVSGVDQALDLLYQFEFEGHHHHHH”, the “soluble on expression in E. coli” value is “not soluble”.

Take “MTDQGLEGSNPVDLSKHPSGIVPTLQNIVSTVNLDCKLDLKAIALQARNAEYNPKRFAAVIMRIREPKTTALIFASGKMVCTGAKSEDFSKMAARKYARIVQKLGFPAKFKDFKIQNIVGSCDVKFPIRLEGLAYSHAAFSSYEPELFPGLIYRMKVPKIVLLIFVSGKIVITGAKMRDETYKAFENIYPVLSEFRKIQQ”: the “soluble on expression in E. coli” value was “soluble”.

On to “GPGSMNPYYAAPPPPPQQQQSRPSVDLDDLFGGPTAANEHKPFHAAPGEPAPPSYDALNGGYSSAPPPAHHAAASEPQQSHNGNISGNQSLYYGAAHQQQQQQQSYGVPAAVPASASPYGMSSPPPAFSSSSSITPGTAPPLQPQPQQQQYGAYPAMPASGMAPPAPPLQQQPPQVYVQPQPQPQPMPGPVHQQQQSFAQNSSSSVSPSGAAAVAGPTAAAGVGSGAASSRSAEEEDRLQLERIIRLRRELELEQEREQRKKEELQTWGCPICTFRNKLNEVKCEMCGSTRPGYTAPASTEPPAQHQQQQHQPRPAATPSQVNAGVTDWQCGMCLAPNEAHAERCKVCYAYRSSGIPVPTASPSGAAANANHNGVVSNTPFTTNWKCSVCGEVNPPSKANCKVCSGFQRNGTAVTDAVPAPSTGSGHGAQATSSADPPLPTVWSCSVCTFENSVSAAVCKACESGQRPRHLAPKRDKEKSASSKQHDSRGSGAKDGGGDGEKKCSSSKSQWPCGTCTFLNPIGRKKCDMCGAKRPESYAAEADTTEARAAAKQEAQDDAEEVAWQDDDSVTECNNCHTTFTFLIRRHHCRLCGYVFCAHCSSYSVPLTMGSLPQRVCVNCYKARLEEEKKTKKARRWLDS”, for which the “soluble on expression in E. coli” value was “soluble”.

Regarding “MTETYVLAESPEFYQDNVTDYTGQISSSDITNIQAAIDDVKASEQKVIFVVFLSSFDGVDPETWTQQALQANGGGNVLIYALAPEERQYGIQGGTQWTDAELDAANNAAFQALSQEDWAGSALALAESVGSSSSSSSGSSSLEHHHHHH”, the “soluble on expression in E. coli” value is listed as “soluble”.

“MAENVGSDSSEFESISSSQKSYLKNCPFAGHEALPTKSTDSDNTEVLGNQISPAVVKTPILSFSSPTSLDSINDDVFRTPPENASLSSAAESEPRVGVSEIKLQGGSNLTTPFSMAETTLVSSSPSLPAENVRVSESNLKSSSSTAKTTPVSASPSVNARVSESNLNSSSSTTPVSVSPSEKVRVFETTPVSASPSEKVRVFETKCHSDSGDSVPLSSSPPSVAADDVRVPAKHLDSDSSPPTAIGRTMVLVKQRISASDNSASSSASEGTKVSKTENSGEVLPFKEIIEALLRNSGEKLNERDDKVSYVEILKQCGLKFPK”: the “soluble on expression in E. coli” value is recorded as “soluble”.

Take “MGDVSAVSSSGNILLPQQDEVGGLSEALKKAVEKHKTEYSGDKKDRDYGDAFVMHKETALPLLLAAWRHGAPAKSEHHNGNVSGLHHNGKSELRIAEKLLKVTAEKSVGLISAEAKVDKSAALLSSKNRPLESVSGKKLSADLKAVESVSEVTDNATGISDDNIKALPGDNKAIAGEGVRKEGAPLARDVAPARMAAANTGKPEDKDHKKVKDVSQLPLQPTTIADLSQLTGGDEKMPLAAQSKPMMTIFPTADGVKGEDSSLTYRFQRWGNDYSVNIQARQAGEFSLIPSNTQVEHRLHDQWQNGNPQRWHLTRDDQQNPQQQQHRQQSGEEDDA”: the “soluble on expression in E. coli” value was “not soluble”.

“MTDKDLLHQKYYHGLLPREDIQEMLNKPGQFLLRTSEPVKGEKRQFVLSVVGEKNTSANHFVVREADHKVYVDKIGFPTIIELVNHYVSTKESFSTKDGTVKVVLKHAVERQKWELYHEDVELTKKLGEGAFGEVWKGKLLKILDANHQPVLVAVKTAKLESMTKEQIKEIMREARLMRNLDHINVVKFFGVAAGTEPLYVIMELADGGALDSALGKLHFPMIKKYELIYQAANGLAYIHEKNLMHRDVAARNCLYGGGQVKIADFGLSREGADYTMDLKKKVPIRWLPPETIRSGLYTPKTDVFAFGVMAWEITEDGKEPYPGFKVIEVAMKVLQGYRMPFSPEVNKEFAEFILTKCWPEKYEDRLPMKDICKWMKSSVKAQGGDTGPGGMMSKFGKKIKRSNSRESKSKSSTMTAAHGHDQGAMTAIEK”: the “soluble on expression in E. coli” value is “not soluble”.

With “RNFKMIDNLSKVYGVELGYASRIKLLRAVFVNMAAAGASELAIDAGMDLMSMDLAGKVSARAGQGLGVGILTARLGLKAMALLRPLPWYPDRQVKLGTIRKAVVAKVASITMKP”, the “soluble on expression in E. coli” value was “not soluble”.

Take “MGSDKIHHHHHHAACSNDDEPGIDKGGQKGELIDAISIAFTSSSAPATRADKGEIEGVGTENNVYVAYLFAKENDPQHEGAKVGDWTVKRVAGDSNTDDKDVAAAIGEGDVATPGTKKNMCTFNGVRQGDSVYVVVNDPQMTLATAQTLAHQGDKSEAAIRAYISNLSKSYLNDLTVTKDGTQGKKYIMAGVSAIPTNPNIPNGSTVKVSIPLNRELAKVFFNASVTTNPVYEAYGKMAIKDAVWENPTGTKDPDGIVVVRIPRRVSPFTAQARDWYFPQSADATAKDWDVEGWLKAFAGESQSVPGTAEVPGTTLALNKGEYNADAKEYRLTWVVGEKALADGATPAAASMVYVKSDKLYSPYFYVTPNYADNAGCATVVVTQATYIGANTLLEPTITEQMLSEALDDSDFQTATSTDGSVKYDKLAADFWNTGANVAALVAFLEKNATYKLALRGETDPSKKEAAITIKPNDKRYYRADVANYSDDETTSMKITERNTFYHITGTITTLGAKSIEDAINSDNIDMLVQVVVKPWKYVVNNINM”: the “soluble on expression in E. coli” value is recorded as “not soluble”.

Regarding “MMTQQELEKYLWGAATTLRGTIDAGDYKQYIFPLMFFKRICDVYDEEFENALAESDGDLEYAAFAENHHFQVPKGAHWNDVRETTTNIGLALQNAMRAIEKANPDTLEGIFGDASWTNKERLSDAMLTNLIEHYSEQTLNLKNVPDDKLGNAYEYLIKEFADDSGHTAAEFYTNRTVVKLMTMIMAPQPGESVYDPTCGSGGLLLNCALHLKDEGKEYRTLKLYGQEINLLTSAIARMNMFMHGIEEFDIVRGNTLSNPGLLENDELKKFNVILANPPYSIKSWDRKAFESDPYGRNVWGTPPQGCADYAFQQHIQKSLDLGNGRSISLWPHGILFRDAETAMRRKMIEQDQVECVIGLGPNLFYNSPMEACLLITKTNKIESKKDKILFINAVKEVRQDKNIGYLDQVHIDKIFNAYNKFENEDSFAVLVDKQEVLDKKANMAINLYIRPDSLVSSEEACFATAYQEWQQSSGDLKQSMEKLFKELV”, the “soluble on expression in E. coli” value is on record as “not soluble”.

As to “MDIRARTKIIDIYSNLKYKKPLKSFQKILTTSDSDNCEDFFNIGLNIDKNKITAIGFDGDGCIISTIATELSIKAIENKTINQAKKILSDLIATYKDKNSANQVVEELKLLIEMNVTEKRLQCLLLTPSNLLQWFKNF”, the “soluble on expression in E. coli” value is “not soluble”.

Take “MGSDKIHHHHHHMLSLGLADSRAISKANSGSERHVREVIKRLSLRYKLYYLPTTHAFLDAISEDQLKEIKKFAKVPSFFEYLLDKKLGKVSLLRELFTFSPLAKELVREYEREIGILDFIYVPHTYRIQLMPSILFSKLSRGKYGMLLMTDPHNSLLEKESFFKCVNVWSKIWFSRKSAIEFCSFQRLQNIAFLLKAIKTKPSFISVMNKCALNYTGLPKYFNTKVLSPPHAFNNLALKYRNFDKEDYLVFLGRINTAKGANEALEVGKHVKLKMIGYKEQEFIVKQARSFGIEVIENVSEEEKFEILSKARALVLPSHQESFSVTILEALAVGTPVITYDLPSLTSTYNFKPVFFVKEFDVKGLVNTALEVYNMKKIEEMFNDERLEEFIKMHSSWDNVSNAVDKLITEAIQE”: the “soluble on expression in E. coli” value is reported as “not soluble”.

“MTLNLSVDEVLTTTRSVRKRLDFDKPVPRDVLMECLELALQAPTGSNSQGWQWVFVEDAAKKKAIADVYLANARGYLSGPAPEYPDGDTRGERMGRVRDSATYLAEHMHRAPVLLIPCLKGREDESAVGGVSFWASLFPAVWSFCLALRSRGLGSCWTTLHLLDNGEHKVADVLGIPYDEYSQGGLLPIAYTQGIDFRPAKRLPAESVTHWNGW”: the “soluble on expression in E. coli” value is reported as “soluble”.

Turning to “MGSDKIHHHHHHMARVPRFALVERDSSNHCTWRAHDLEFVFEEPGARDKFLELVGRYKDRYGVEIRSYCLMGTHPHVTCTCRQEQVQFSRFWQVVNGQFARWYNKVRNRRGQVVMERMRTPRIQEGGAHQLTVMRYGDLNPVRAGLVKSPKDWKWSSYRHYAFGEPNPLITDAPEYLALGKTAQERRKAYQALFALPLSESLRTRRVELVSFPFVGDATWVMRRLEAAGLSPPD”, the “soluble on expression in E. coli” value was “not soluble”.

As to “MKTPQGNTSASRREVDTSMRNRFEFAGSSLRDRIGSILSMDQTPRPATRANIFMGRTPTPARHLPESRRMFVPDYTSTPAPTAPRQEFRFEDLSRIVAPPIEQTFIQLDSDGELTLPAESSIAVSPPPRPSSEPLRHLSQVSLSARPASTEPVRRDVHWRVHPSAKIRKCTVPKTPSFARPTKSWLNRVNRED”, the “soluble on expression in E. coli” value was “not soluble”.

“MAAPGPALCLFDVDGTLTAPRQKITKEMDDFLQKLRQKIKIGVVGGSDFEKVQEQLGNDVVEKYDYVFPENGLVAYKDGKLLCRQNIQSHLGEALIQDLINYCLSYIAKIKLPKKRGTFIEFRNGMLNVSPIGRSCSQEERIEFYELDKKENIRQKFVADLRKEFAGKGLTFSIGGQISFDVFPDGWDKRYCLRHVENDGYKTIYFFGDKTMPGGNDHEIFTDPRTMGYSVTAPEDTRRICELLFS”: the “soluble on expression in E. coli” value was “soluble”.

As to “SGLIGEGLKDVKSAAGDTRVDNFADRLAALSQAAQPARAVAAPASAPLMNQPLAMHQSGWTEGIVDRVMYLSSQNLKTADIKLEPAELGRLDIRINMAPEQQTQVTFMSAHMGVRDALESQMSKLRESFVQQGLGNVDVNVSDQS”, the “soluble on expression in E. coli” value is recorded as “not soluble”.

For the sequence “MKITVIGAGNVGATTAFRLAEKQLARELVLLDVVEGIPQGKALDMYESGPVGLFDTKVTGSNDYADTANSDIVVITAGLPRKPGMTREDLLSMNAGIVREVTGRIMEHSKNPIIVVVSNPLDIMTHVAWQKSGLPKERVIGMAGVLDSARFRSFIAMELGVSMQDVTACVLGGHGDAMVPVVKYTTVAGIPVADLISAERIAELVERTRTGGAEIVNHLKQGSAFYSPATSVVEMVESIVLDRKRVLTCAVSLDGQYGIDGTFVGVPVKLGKNGVEHIYEIKLDQSDLDLLQKSAKIVDENCKMLDASQG”, the “soluble on expression in E. coli” value is reported as “soluble”.

These data come from the DeepSol protein solubility set.
